Results on 6 molecules are retold here after article PMC12342889, “Deciphering the RNA recognition by Musashi-1 to design protein and RNA variants for in vitro and in vivo applications”.

Series [1] deals with MSI-1 RRM2-M2 (Homo sapiens, UniProt O43347 104-200, K182M). In words: SPR; NMR: 50 mM Tris-HCl, 140 mM NaCl, 1 mM EDTA, 1 mM protease inhibitors, pH 7.2 (RRM1: pH 7.5), 298 K; fluorescence quenching: 50 mM Tris pH 7.2, 140 mM NaCl, 1 mM EDTA; SPR: biotinylated RNA immobilised, buffer not in the material. Conditions: protein: recombinant, label: biotin for SPR. In general terms: SPR reads the build-up and loss of mass on a sensor chip optically.
Chain of MSI-1 RRM2-M2 (O43347 104-200 K182M): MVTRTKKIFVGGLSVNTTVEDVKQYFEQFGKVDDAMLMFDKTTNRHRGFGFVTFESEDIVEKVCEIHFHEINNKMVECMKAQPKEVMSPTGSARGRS

Series [2] addresses MSI-1 RRM2-M1 (Homo sapiens, UniProt O43347 104-200, E180N). Described as above. Conditions: protein: recombinant, label: biotin for SPR.
In series [3] the target is MSI-1 RRM1 (Homo sapiens, UniProt O43347 1-103). In words: SPR; 1:1 model; NMR: 50 mM Tris-HCl, 140 mM NaCl, 1 mM EDTA, 1 mM protease inhibitors, pH 7.2 (RRM1: pH 7.5), 298 K; fluorescence quenching: 50 mM Tris pH 7.2, 140 mM NaCl, 1 mM EDTA; SPR: biotinylated RNA immobilised, buffer not in the material. As to conditions: protein: recombinant, label: biotin for SPR.
Chain of MSI-1 RRM1 (O43347 1-103): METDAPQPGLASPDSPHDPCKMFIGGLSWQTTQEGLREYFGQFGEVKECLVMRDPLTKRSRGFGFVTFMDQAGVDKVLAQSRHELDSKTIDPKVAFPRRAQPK
The target of series [4] is MSI-1 RRM2 (Homo sapiens, UniProt O43347 104-200). The description is as above. As to conditions: protein: recombinant, label: biotin for SPR.
Chain of MSI-1 RRM2 (O43347 104-200): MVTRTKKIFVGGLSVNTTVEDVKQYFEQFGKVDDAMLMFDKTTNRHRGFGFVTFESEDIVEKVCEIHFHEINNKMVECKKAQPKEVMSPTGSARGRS
The target in series [5] is T1, MSI-1 RRM1-2 DM (Homo sapiens, UniProt O43347 1-200, E180N;K182M). As to the kind of experiment: NMR; more than one species; NMR: 50 mM Tris-HCl, 140 mM NaCl, 1 mM EDTA, 1 mM protease inhibitors, pH 7.2 (RRM1: pH 7.5), 298 K; fluorescence quenching: 50 mM Tris pH 7.2, 140 mM NaCl, 1 mM EDTA; SPR: biotinylated RNA immobilised, buffer not in the material. As to conditions: protein: recombinant; label: biotin for SPR; unlabelled for NMR; hairpin.
T1 sequence (O43347 1-200 E180N/K182M): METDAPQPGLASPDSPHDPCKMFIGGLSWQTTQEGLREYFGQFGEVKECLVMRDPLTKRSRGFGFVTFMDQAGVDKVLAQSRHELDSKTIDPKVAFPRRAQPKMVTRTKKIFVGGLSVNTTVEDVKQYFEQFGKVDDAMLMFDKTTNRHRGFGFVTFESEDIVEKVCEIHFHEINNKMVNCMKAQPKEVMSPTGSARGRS

Series [6] concerns the target T2, MSI-1 RRM1-2 (Homo sapiens, UniProt O43347 1-200). In words: SPR; KD1 monovalent, 1:2 model; NMR: 50 mM Tris-HCl, 140 mM NaCl, 1 mM EDTA, 1 mM protease inhibitors, pH 7.2 (RRM1: pH 7.5), 298 K; fluorescence quenching: 50 mM Tris pH 7.2, 140 mM NaCl, 1 mM EDTA; SPR: biotinylated RNA immobilised, buffer not in the material. As to conditions: protein: recombinant, label: biotin for SPR, unlabelled for NMR.

In series [7] the target is T1, MSI-1 RRM1-2 DM. As to the kind of experiment: SPR; KD1 monovalent; NMR: 50 mM Tris-HCl, 140 mM NaCl, 1 mM EDTA, 1 mM protease inhibitors, pH 7.2 (RRM1: pH 7.5), 298 K; fluorescence quenching: 50 mM Tris pH 7.2, 140 mM NaCl, 1 mM EDTA; SPR: biotinylated RNA immobilised, buffer not in the material. Conditions: protein: recombinant; label: biotin for SPR; unlabelled for NMR; single strand.

In series [8] the target is T1, MSI-1 RRM1-2 DM. In words: SPR; KD1 monovalent, 1:2 model; NMR: 50 mM Tris-HCl, 140 mM NaCl, 1 mM EDTA, 1 mM protease inhibitors, pH 7.2 (RRM1: pH 7.5), 298 K; fluorescence quenching: 50 mM Tris pH 7.2, 140 mM NaCl, 1 mM EDTA; SPR: biotinylated RNA immobilised, buffer not in the material. As to conditions: protein: recombinant; label: biotin for SPR; unlabelled for NMR; single strand.

The target of series [9] is T2, MSI-1 RRM1-2. As to the kind of experiment: SPR; KD1 monovalent; bivalent part negligible; NMR: 50 mM Tris-HCl, 140 mM NaCl, 1 mM EDTA, 1 mM protease inhibitors, pH 7.2 (RRM1: pH 7.5), 298 K; fluorescence quenching: 50 mM Tris pH 7.2, 140 mM NaCl, 1 mM EDTA; SPR: biotinylated RNA immobilised, buffer not in the material. Conditions: protein: recombinant; label: biotin for SPR; single strand.

Series [10] concerns the target T1, MSI-1 RRM1-2 DM. As to the kind of experiment: SPR; KD1 monovalent; 1:1 model at low RNA density; NMR: 50 mM Tris-HCl, 140 mM NaCl, 1 mM EDTA, 1 mM protease inhibitors, pH 7.2 (RRM1: pH 7.5), 298 K; fluorescence quenching: 50 mM Tris pH 7.2, 140 mM NaCl, 1 mM EDTA; SPR: biotinylated RNA immobilised, buffer not in the material. As to conditions: protein: recombinant; label: biotin for SPR; single strand.

Setting [11] is: unlabelled for NMR, single strand.

Chain of MSI-1 RRM2-M1 (O43347 104-200 E180N): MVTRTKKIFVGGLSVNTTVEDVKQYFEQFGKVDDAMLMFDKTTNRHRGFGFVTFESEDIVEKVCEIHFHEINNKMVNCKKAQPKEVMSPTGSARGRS
T2 sequence (O43347 1-200): as the sequence (O43347 1-200 E180N/K182M) above, with N180E, M182K counted along it

On to AAGCGUUAGUUAUUUAGUCGCUU (structured_RNA) [oligo-HP4], for which the Kd in [1] (unlabelled for NMR, hairpin) amounted to 39.1 ± 15 nM; in series [2] (unlabelled for NMR, hairpin), 14.1 ± 2.5 nM; in [3] (unlabelled for NMR, hairpin), 21.9 ± 2.7 nM; in series [4] (unlabelled for NMR, hairpin), 37.2 ± 2.4 nM; in series [6] (hairpin) it was 76.8 ± 5.9 nM. The binding result in series [5] was “binds”.
Take UUGUUAGUUAUUAGUU (ssRNA) [oligo-L3]: the Kd in [1] (setting [11]) came out at 64.5 ± 4.1 nM; in series [2] (setting [11]) it was 74.8 ± 9.3 nM; in series [3] (setting [11]), 153 ± 8.6 nM; in [4] (setting [11]), 81.6 ± 2 nM; in series [7] it was 98.5 ± 4.8 nM; in [6] (single strand), 248 ± 8.5 nM.
For the molecule CACUCUGUAGUAUGUAGGGUUUAUUU (structured_RNA) [oligo-HP5], the Kd in series [1] (unlabelled for NMR, hairpin) came to 14.5 ± 3 nM; in series [2] (unlabelled for NMR, hairpin), 14.5 ± 0.8 nM; in [3] (unlabelled for NMR, hairpin), 32.8 ± 5.2 nM; in series [4] (unlabelled for NMR, hairpin) it was 26.4 ± 1.6 nM; in series [6] (hairpin) it was 48.6 ± 5.6 nM.
Take UUGUUAGUUACCCCUU (ssRNA) [oligo-L2]: the Kd in series [1] (setting [11]) was 108 ± 10.2 nM; in [2] (setting [11]) it was 35.5 ± 3.6 nM; in series [3] (setting [11]) it was 47.1 ± 0.7 nM; in series [4] (setting [11]), 25 ± 3.6 nM; in [6] (single strand) it was 57.6 ± 12.9 nM; in series [8], 104 ± 9.5 nM.
Take UUGUCAGUUACCCCUU (ssRNA) [oligo-L2.1]: the Kd in series [1] (single strand) came out at 62.9 ± 11 nM; in series [2] (single strand), 58.6 ± 3.6 nM; in series [3] (single strand), 151 ± 16.9 nM; in series [4] (single strand), 123 ± 7.8 nM; in [9], 218 ± 27.5 nM; in series [10] it was 67 ± 20.4 nM.
Take UUGAUAGUUAGCAGGU (ssRNA) [oligo-L3.2]: the Kd in series [1] (setting [11]) stood at 88.5 ± 1.25 nM; in series [2] (setting [11]), 49.8 ± 11.4 nM; in series [3] (setting [11]) it was 85.6 ± 7.4 nM; in [4] (setting [11]), 44.5 ± 4.5 nM; in series [7], 98.5 ± 6.9 nM; in series [6] (single strand), 144 ± 15 nM.
